The labels stand for the following.
B1: Twister Ribozyme (parent)
chain: AACACUGCCAAUGCCGGUCCCAAGCCCGGAUAAAAGUGGAGGGGGCGG

The variants in the series derive from B1. Put plainly: self-cleavage, relative activity (ratio to wild type); higher = more cleavage; co-transcriptional.
In the case of AUCACUGCCAAUGCCGGUCCCAAGGCCGGAUAAAAGUGGAGGGGGCGG [A2U C25G], the self-cleavage is 0.0728.
In the case of AUCACUGCCAAUGCCGGUCCCAAGACCGGAUAAAAGUGGAGGGGGCGG [A2U C25A], the self-cleavage was 0.0735.
For the variant AUCACUGCCAAUGCCGGUCCCAAGUCCGGAUAAAAGUGGAGGGGGCGG [A2U C25U], the self-cleavage amounted to 0.169.
Turning to AUCACUGCCAAUGCCGGUCCCAAGCCCGGAUAAGAGUGGAGGGGGCGG [A2U A34G], the self-cleavage was 0.292.
In the case of AUCACUGCCAAUGCCGGUCCCAAGCCCGGAUAAAAGUGGAGGGGUCGG [A2U G45U], the self-cleavage amounted to 0.344.
The result for AUCACUGCCAAUGCCGGUCCCAAGCCCGGAUAAACGUGGAGGGGGCGG [A2U A35C] reads 0.745.
For AUAACUGCCAAUGCCGGUCCCAAGCCCGGAUAAAAGUGGAGGGGGCGG [A2U C3A], the self-cleavage was 0.077.
For the variant AUUACUGCCAAUGCCGGUCCCAAGCCCGGAUAAAAGUGGAGGGGGCGG [A2U C3U], the self-cleavage turned out to be 0.221.
For the variant AUGACUGCCAAUGCCGGUCCCAAGCCCGGAUAAAAGUGGAGGGGGCGG [A2U C3G], the self-cleavage turned out to be 0.113.
As to AUCACUGCCAAUGCCAGUCCCAAGCCCGGAUAAAAGUGGAGGGGGCGG [A2U G16A], the self-cleavage worked out at 0.256.
The result for AGCACUGCCAAGGCCGGUCCCAAGCCCGGAUAAAAGUGGAGGGGGCGG [A2G U12G] reads 0.252; that for AGCACUGCCAAAGCCGGUCCCAAGCCCGGAUAAAAGUGGAGGGGGCGG [A2G U12A], 0.367.
Regarding AUCACUGCCAAUGCCGGUCCUAAGCCCGGAUAAAAGUGGAGGGGGCGG [A2U C21U], the self-cleavage was 0.0725.
In the case of AUCACUGCCAAUGCCGGUCCAAAGCCCGGAUAAAAGUGGAGGGGGCGG [A2U C21A], the self-cleavage amounted to 0.0621.
AUCACUGCCAAUGCCGGUCCGAAGCCCGGAUAAAAGUGGAGGGGGCGG [A2U C21G]: the self-cleavage was 0.0765.
Regarding AUCACUGCCAAUGACGGUCCCAAGCCCGGAUAAAAGUGGAGGGGGCGG [A2U C14A], the self-cleavage was 0.531.
AUCACUGCCAAUGCCGAUCCCAAGCCCGGAUAAAAGUGGAGGGGGCGG [A2U G17A]: the self-cleavage worked out at 0.131.
The result for AUCACUGCCAAUGCCGGUCCCAAGCCCGGAUAAAAGUCGAGGGGGCGG [A2U G38C] reads 0.252; that for AUCACUGCCAAUGCCGGUCCCAAGCCCGGAUAAAAGUAGAGGGGGCGG [A2U G38A], 0.789; that for AUCACUGCCAAUGCCGGUCCCAAGCCCGGAUAAAAGUUGAGGGGGCGG [A2U G38U], 0.184.
In the case of AUCACUGCCAAUGCCGGUACCAAGCCCGGAUAAAAGUGGAGGGGGCGG [A2U C19A], the self-cleavage stood at 0.129.
Consider AUCACUGCCAAUGCCGGUUCCAAGCCCGGAUAAAAGUGGAGGGGGCGG [A2U C19U], for which the self-cleavage was determined as 0.163.
On to AAAACUGCCAAUGCCGGUCCCAAGCCCGGCUAAAAGUGGAGGGGGCGG [C3A A30C], for which the self-cleavage is 0.225.
In the case of AAAACUGCCAAUGCCGGUCCCAAGCCCGGGUAAAAGUGGAGGGGGCGG [C3A A30G], the self-cleavage turned out to be 0.202.
For AAAACUGCCAAUGCCGGUCCCCAGCCCGGAUAAAAGUGGAGGGGGCGG [C3A A22C], the self-cleavage turned out to be 0.115.
As to AAAACUGCCAAUGCCGGUCCCGAGCCCGGAUAAAAGUGGAGGGGGCGG [C3A A22G], the self-cleavage came out at 0.0923.
For the variant AGCACUGCCAAUGCCGGUCCCAAGCCCGGAUAAAAGUGGAUGGGGCGG [A2G G41U], the self-cleavage was found to be 0.0697.
AGCACUGCCAAUGCCGGUCCCAAGCCCGGAUAAAAGUGGAAGGGGCGG [A2G G41A]: the self-cleavage came out at 0.102.
In the case of AGCACUGCCAAUGCCGGUCCCAAGCCCGGAUAAAAGUGGAGGGGGCGU [A2G G48U], the self-cleavage was found to be 0.255.
The result for AGCACUGCCAAUGCCGGUCCCAAGCCCGGAUAAAAGUGGAGGGGGCGC [A2G G48C] reads 0.389.
The result for AAAACUGCCCAUGCCGGUCCCAAGCCCGGAUAAAAGUGGAGGGGGCGG [C3A A10C] reads 0.308; that for AUCACUGCCAAUGCCGGUCCCAGGCCCGGAUAAAAGUGGAGGGGGCGG [A2U A23G], 0.0976.
Take AUCACUGCCAAUGCCGGUCCCAAGCCCGGAUAAAAGUGGAGGAGGCGG [A2U G43A]: the self-cleavage was determined as 0.128.
Take AGCACUGCCAAUGCCGGUCCCAAGCCCGGAUAAAAGUGGAGGGGGCAG [A2G G47A]: the self-cleavage was found to be 0.232.
The result for AGCACUGCCAAUGCCGGUCCCAAGCCCGGAUAAAAGUGGAGGGGGCUG [A2G G47U] reads 0.117; that for AUCACUGCCAAUGCCGGUCCCAAGCCCGGAUAAAAGUGGAGGGGGCGG [A2U], 0.738; that for AUCAAUGCCAAUGCCGGUCCCAAGCCCGGAUAAAAGUGGAGGGGGCGG [A2U C5A], 0.13.
As to AUCAGUGCCAAUGCCGGUCCCAAGCCCGGAUAAAAGUGGAGGGGGCGG [A2U C5G], the self-cleavage worked out at 0.172.
Take AUCAUUGCCAAUGCCGGUCCCAAGCCCGGAUAAAAGUGGAGGGGGCGG [A2U C5U]: the self-cleavage worked out at 0.448.
For AUCACUGCCAAUGCCGGUCCCAAGCCCGGAUAAAAGUGGAGGGGGCAG [A2U G47A] the value was 0.292.
For AUCGCUGCCAAUGCCGGUCCCAAGCCCGGAUAAAAGUGGAGGGGGCGG [A2U A4G] the value was 0.413.
As for AUCUCUGCCAAUGCCGGUCCCAAGCCCGGAUAAAAGUGGAGGGGGCGG [A2U A4U], the self-cleavage amounted to 0.0802.
On to AUCACAGCCAAUGCCGGUCCCAAGCCCGGAUAAAAGUGGAGGGGGCGG [A2U U6A], for which the self-cleavage came out at 0.185.
On to AUCACGGCCAAUGCCGGUCCCAAGCCCGGAUAAAAGUGGAGGGGGCGG [A2U U6G], for which the self-cleavage was 0.0884.
The result for AUCACUGCCAAUGCCGGUCCCGAGCCCGGAUAAAAGUGGAGGGGGCGG [A2U A22G] reads 0.0815; that for AUCACUGCCAAUGCCGGUCCCCAGCCCGGAUAAAAGUGGAGGGGGCGG [A2U A22C], 0.311.
On to AUCACUGCCAAUGCCGGUCCCAAGCCCGGAUAAAAGUGGGGGGGGCGG [A2U A40G], for which the self-cleavage came out at 0.163.
With AGCACAGCCAAUGCCGGUCCCAAGCCCGGAUAAAAGUGGAGGGGGCGG [A2G U6A], the self-cleavage turned out to be 0.192.
For the variant AUCACUGCUAAUGCCGGUCCCAAGCCCGGAUAAAAGUGGAGGGGGCGG [A2U C9U], the self-cleavage came to 0.133.
Take AUCACUGCAAAUGCCGGUCCCAAGCCCGGAUAAAAGUGGAGGGGGCGG [A2U C9A]: the self-cleavage came out at 0.0899.
Consider AGCACUGCCAAUGCCGGUCCCAAGCCCGGAUAAAAGUGGAGGAGGCGG [A2G G43A], for which the self-cleavage amounted to 0.104.
With AGCACUGCCAAUGCCGGUCCCAAGCCCGGAUAAAAGUGGAGGUGGCGG [A2G G43U], the self-cleavage is 0.119.
The result for AGCACUGCCAAUGCCGGUCCCAAGCCCGGAUAAAAGUGGAGGCGGCGG [A2G G43C] reads 0.122; that for AUCACUGCCAAUGCCGGACCCAAGCCCGGAUAAAAGUGGAGGGGGCGG [A2U U18A], 0.0781.

The values above are taken from the RNAGym collection of RNA variant scans (doi:10.7554/elife.80360).
